Data on one protein can be found in publication PMC3956076.

Substrate in this data set: Nc1ncnc2c1ncn2[C@@H]1O[C@H](COP(=O)(O)OP(=O)(O)OP(=O)(O)OP(=O)(O)OC[C@H]2O[C@@H](n3cnc4c(N)ncnc43)[C@H](O)[C@@H]2O)[C@@H](O)[C@H]1O
As to the kind of experiment: luciferase bioluminescence assay of liberated ATP. It counts as biochemical, Chlamydia trachomatis. The conditions noted are these: 5.0 mM MgCl2, 100 mM Tris-HCl pH 7.5, room temperature.

B1: CT771 (Chlamydia trachomatis L2/434/Bu) (protein)
chain: MMKTKHEYSFGVIPIRFFGTPDRSTLKACFICHTDGKHWGFPKGHAEEKEGPQEAAERELVEETGLGIVNFFPKIFVENYSFNDKEEIFVRKEVTYFLAEVKGEVHADPDEICDVQWLSFQEGLRLLNFPEIRNIVTEADKFVQSYLFAS
Regarding B1, the Michaelis constant (Km) (usually the concentration of substrate that gives half-maximal velocity) came out at 333 ± 27 µM; the kcat (as a rule, the number of substrate molecules converted per active site and unit of time at saturation) is 3.25 ± 0.1 s⁻¹.
